Experimental findings from publication PMC7196576, “Structural changes of a bacteriophage upon DNA packaging and maturation” (Protein & Cell, 2020) are described below.

First the molecules themselves.
B1: nozzle protein gp12 of bacteriophage T7 (natural protein, Escherichia coli bacteriophage T7, UniProt P03747 1-794, looked up)
chain: MALISQSIKNLKGGISQQPDILRYPDQGSRQVNGWSSETEGLQKRPPLVFLNTLGDNGALGQAPYIHLINRDEHEQYYAVFTGSGIRVFDLSGNEKQVRYPNGSNYIKTANPRNDLRMVTVADYTFIVNRNVVAQKNTKSVNLPNYNPNQDGLINVRGGQYGRELIVHINGKDVAKYKIPDGSQPEHVNNTDAQWLAEELAKQMRTNLSDWTVNVGQGFIHVTAPSGQQIDSFTTKDGYADQLINPVTHYAQSFSKLPPNAPNGYMVKIVGDASKSADQYYVRYDAERKVWTETLGWNTEDQVLWETMPHALVRAADGNFDFKWLEWSPKSCGDVDTNPWPSFVGSSINDVFFFRNRLGFLSGENIILSRTAKYFNFYPASIANLSDDDPIDVAVSTNRIAILKYAVPFSEELLIWSDEAQFVLTASGTLTSKSVELNLTTQFDVQDRARPFGIGRNVYFASPRSSFTSIHRYYAVQDVSSVKNAEDITSHVPNYIPNGVFSICGSGTENFCSVLSHGDPSKIFMYKFLYLNEELRQQSWSHWDFGENVQVLACQSISSDMYVILRNEFNTFLARISFTKNAIDLQGEPYRAFMDMKIRYTIPSGTYNDDTFTTSIHIPTIYGANFGRGKITVLEPDGKITVFEQPTAGWNSDPWLRLSGNLEGRMVYIGFNINFVYEFSKFLIKQTADDGSTSTEDIGRLQLRRAWVNYENSGTFDIYVENQSSNWKYTMAGARLGSNTLRAGRLNLGTGQYRFPVVGNAKFNTVYILSDETTPLNIIGCGWEGNYLRRSSGI
notes: nozzle protein gp12, Escherichia coli bacteriophage T7; Native protein in the virion; hexameric tube; source: in mature T7 phage purified from cells
B2: portal protein gp8 of bacteriophage T7 (natural protein, Escherichia coli bacteriophage T7, UniProt P03728 1-536, looked up)
chain: MAEKRTGLAEDGAKSVYERLKNDRAPYETRAQNCAQYTIPSLFPKDSDNASTDYQTPWQAVGARGLNNLASKLMLALFPMQTWMRLTISEYEAKQLLSDPDGLAKVDEGLSMVERIIMNYIESNSYRVTLFEALKQLVVAGNVLLYLPEPEGSNYNPMKLYRLSSYVVQRDAFGNVLQMVTRDQIAFGALPEDIRKAVEGQGGEKKADETIDVYTHIYLDEDSGEYLRYEEVEGMEVQGSDGTYPKEACPYIPIRMVRLDGESYGRSYIEEYLGDLRSLENLQEAIVKMSMISSKVIGLVNPAGITQPRRLTKAQTGDFVTGRPEDISFLQLEKQADFTVAKAVSDAIEARLSFAFMLNSAVQRTGERVTAEEIRYVASELEDTLGGVYSILSQELQLPLVRVLLKQLQATQQIPELPKEAVEPTISTGLEAIGRGQDLDKLERCVTAWAALAPMRDDPDINLAMIKLRIANAIGIDTSGILLTEEQKQQKMAQQSMQMGMDNGAAALAQGMAAQATASPEAMAAAADSVGLQPGI
notes: portal protein gp8, Escherichia coli bacteriophage T7; domains clip (294-334), stem (335-356 and 269-293), wing (1-268, 357-427), crown (428-492), C-terminal helical barrel; Native protein in the virion; dodecamer at one vertex; The C-terminal barrel is not seen in capsid II; also called T7 portal; source: in mature T7 phage and T7 capsid II particles purified from cells; copies: 12
B3: tail fiber gp17 of bacteriophage T7 (natural protein, Escherichia coli bacteriophage T7, UniProt P03748 1-553, looked up)
chain: MANVIKTVLTYQLDGSNRDFNIPFEYLARKFVVVTLIGVDRKVLTINTDYRFATRTTISLTKAWGPADGYTTIELRRVTSTTDRLVDFTDGSILRAYDLNVAQIQTMHVAEEARDLTTDTIGVNNDGHLDARGRRIVNLANAVDDRDAVPFGQLKTMNQNSWQARNEALQFRNEAETFRNQAEGFKNESSTNATNTKQWRDETKGFRDEAKRFKNTAGQYATSAGNSASAAHQSEVNAENSATASANSAHLAEQQADRAEREADKLENYNGLAGAIDKVDGTNVYWKGNIHANGRLYMTTNGFDCGQYQQFFGGVTNRYSVMEWGDENGWLMYVQRREWTTAIGGNIQLVVNGQIITQGGAMTGQLKLQNGHVLQLESASDKAHYILSKDGNRNNWYIGRGSDNNNDCTFHSYVHGTTLTLKQDYAVVNKHFHVGQAVVATDGNIQGTKWGGKWLDAYLRDSFVAKSKAWTQVWSGSAGGGVSVTVSQDLRFRNIWIKCANNSWNFFRTGPDGIYFIASDGGWLRFQIHSNGLGFKNIADSRSVPNAIMVENE
notes: tail fiber protein gp17, Escherichia coli bacteriophage T7; only the N-terminus (a jelly-roll barrel and a 22-residue alpha-helix) was resolved; Native protein in the virion; six trimers a phage; The distal parts of the fibers were too flexible to be resolved; source: in mature T7 phage purified from cells
B4: adaptor protein gp11 of bacteriophage T7 (natural protein, Escherichia coli bacteriophage T7, UniProt P03746 1-196, looked up)
chain: MRSYDMNVETAAELSAVNDILASIGEPPVSTLEGDANADAANARRILNKINRQIQSRGWTFNIEEGITLLPDVYSNLIVYSDDYLSLMSTSGQSIYVNRGGYVYDRTSQSDRFDSGITVNIIRLRDYDEMPECFRYWIVTKASRQFNNRFFGAPEVEGVLQEEEDEARRLCMEYEMDYGGYNMLDGDAFTSGLLTR
notes: adaptor protein gp11, Escherichia coli bacteriophage T7; Native protein in the virion; dodecameric ring; also called tail adaptor; source: in mature T7 phage purified from cells; copies: 12

This data set concerns the molecule itself. The data set is described as follows: cryo-EM structure; mature T7 phage purified from cells; icosahedral, symmetry-mismatch and local reconstructions (shell 3.5 Å, asymmetric 7 Å, portal-tail complex 3.8 Å, core 6.0 Å).
As a reminder, the stoichiometry N is the number of molecules, sites or subunits per partner or assembly. For B1, the “stoichiometry N” value stood at 6.
Under B2 stands 12; under B3, 3; under B4, 12.
